Data as given in patent US20090175880A1 (published 2009).

Key:
[1] = biological target: soluble fusion protein comprising a DEC-205 extracellular domain (comprising all ten lectin-binding domains) fused with an antibody Fc domain (human) (UniProt O60449); assay: SPR (Biacore 2000), DEC-205 fusion protein amine-coupled to CM5 chip, antibody flowed at 1.25-200 nM, 1:1 Langmuir fit, mean of two series
[2] = biological target: T1, soluble fusion protein comprising a DEC-205 extracellular domain (comprising all ten lectin-binding domains) … (human, UniProt O60449 28-1666); assay: as above
T1 construct: not shown: antibody Fc domain
From the text: Low levels of ligand were immobilised to limit any effects of mass transport of analyte on kinetic parameters, such that the RMAX observed was in the order of 200 RU.
The antigen-antibody association and dissociation kinetics were followed for approximately 300 to 600 seconds in each case.
Biacore's kinetics wizard was used in each case to derive kinetic parameters from the concentration series of analyte diluted in HBS-NP running buffer. The association and dissociation curves were fitted to a 1:1 Langmuir binding model using Biacore™ kinetics wizard software (Biacore AB) according to the manufacturer's guidelines. For each antibody, the figures shown are the mean of two separate series of experiments, using separately prepared sensor chips in each case, (where ka=rate constant of association, kd=rate constant of dissociation, KD=dissociation equilibrium constant (measure of affinity), KA=association equilibrium constant, Rmax=maximum SPR response signal).

[3] = biological target: human DEC-205 expressed on the cell surface (human, UniProt O60449 28-1722); assay: flow cytometry on CHO-S cells expressing human DEC-205, saturating antibody, PE anti-human IgG Fc
[4] = biological target: T1, soluble fusion protein comprising a …; assay: ELISA, plates coated with soluble DEC-205/Fc fusion protein, saturating antibody, AP anti-human IgG Fc, OD 405-650

T1 sequence (O60449 28-1666 K1321N/Y1391H): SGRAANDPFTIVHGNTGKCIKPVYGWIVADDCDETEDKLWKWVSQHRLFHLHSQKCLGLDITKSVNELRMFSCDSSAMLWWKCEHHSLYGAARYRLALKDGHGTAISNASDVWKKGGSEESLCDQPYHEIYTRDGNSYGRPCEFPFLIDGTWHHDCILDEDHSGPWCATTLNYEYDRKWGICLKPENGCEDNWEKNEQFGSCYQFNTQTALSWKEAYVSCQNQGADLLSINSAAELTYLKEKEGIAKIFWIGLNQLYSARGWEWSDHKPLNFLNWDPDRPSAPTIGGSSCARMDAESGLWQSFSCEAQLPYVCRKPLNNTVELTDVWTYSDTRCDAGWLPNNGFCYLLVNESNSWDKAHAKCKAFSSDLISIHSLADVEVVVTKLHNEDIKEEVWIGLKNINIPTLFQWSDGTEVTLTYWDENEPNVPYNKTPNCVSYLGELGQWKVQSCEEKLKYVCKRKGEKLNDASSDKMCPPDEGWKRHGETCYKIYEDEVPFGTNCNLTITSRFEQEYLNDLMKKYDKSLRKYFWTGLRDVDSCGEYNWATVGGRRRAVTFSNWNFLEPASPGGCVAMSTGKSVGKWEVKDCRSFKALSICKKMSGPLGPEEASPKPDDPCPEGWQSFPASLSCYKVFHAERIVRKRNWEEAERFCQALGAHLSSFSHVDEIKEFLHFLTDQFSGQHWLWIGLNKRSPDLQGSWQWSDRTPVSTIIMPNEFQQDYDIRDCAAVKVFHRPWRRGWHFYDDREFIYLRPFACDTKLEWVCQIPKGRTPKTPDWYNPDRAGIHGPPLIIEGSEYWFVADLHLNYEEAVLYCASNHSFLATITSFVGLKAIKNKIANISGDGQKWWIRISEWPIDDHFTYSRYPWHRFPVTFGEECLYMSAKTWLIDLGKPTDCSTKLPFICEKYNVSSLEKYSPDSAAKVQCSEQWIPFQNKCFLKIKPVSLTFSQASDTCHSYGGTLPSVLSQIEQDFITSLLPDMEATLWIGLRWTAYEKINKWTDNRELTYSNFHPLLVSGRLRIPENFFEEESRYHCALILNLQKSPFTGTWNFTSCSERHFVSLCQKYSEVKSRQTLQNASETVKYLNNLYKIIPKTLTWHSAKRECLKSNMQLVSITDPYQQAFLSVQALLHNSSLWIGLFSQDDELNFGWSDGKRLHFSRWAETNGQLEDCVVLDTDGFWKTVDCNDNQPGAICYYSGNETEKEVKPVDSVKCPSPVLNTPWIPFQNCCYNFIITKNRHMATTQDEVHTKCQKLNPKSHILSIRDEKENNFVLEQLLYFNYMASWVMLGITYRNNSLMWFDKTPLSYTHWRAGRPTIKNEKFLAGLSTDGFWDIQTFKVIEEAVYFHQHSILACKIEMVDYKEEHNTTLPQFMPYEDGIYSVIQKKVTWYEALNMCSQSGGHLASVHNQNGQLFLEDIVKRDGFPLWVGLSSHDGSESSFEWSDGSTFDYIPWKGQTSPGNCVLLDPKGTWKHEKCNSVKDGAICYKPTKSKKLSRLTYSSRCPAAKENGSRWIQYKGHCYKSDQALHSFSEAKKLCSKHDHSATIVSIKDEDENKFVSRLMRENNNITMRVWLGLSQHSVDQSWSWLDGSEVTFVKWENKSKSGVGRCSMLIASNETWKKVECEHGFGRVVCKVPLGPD
soluble fusion protein comprising a DEC-205 extracellular domain (comprising all ten lectin-binding domains) fused with an antibody Fc domain (human), sequence (O60449 28-1666 K1321N/Y1391H): as above
human DEC-205 expressed on the cell surface, sequence (O60449 28-1722 K1321N/Y1391H limits assumed): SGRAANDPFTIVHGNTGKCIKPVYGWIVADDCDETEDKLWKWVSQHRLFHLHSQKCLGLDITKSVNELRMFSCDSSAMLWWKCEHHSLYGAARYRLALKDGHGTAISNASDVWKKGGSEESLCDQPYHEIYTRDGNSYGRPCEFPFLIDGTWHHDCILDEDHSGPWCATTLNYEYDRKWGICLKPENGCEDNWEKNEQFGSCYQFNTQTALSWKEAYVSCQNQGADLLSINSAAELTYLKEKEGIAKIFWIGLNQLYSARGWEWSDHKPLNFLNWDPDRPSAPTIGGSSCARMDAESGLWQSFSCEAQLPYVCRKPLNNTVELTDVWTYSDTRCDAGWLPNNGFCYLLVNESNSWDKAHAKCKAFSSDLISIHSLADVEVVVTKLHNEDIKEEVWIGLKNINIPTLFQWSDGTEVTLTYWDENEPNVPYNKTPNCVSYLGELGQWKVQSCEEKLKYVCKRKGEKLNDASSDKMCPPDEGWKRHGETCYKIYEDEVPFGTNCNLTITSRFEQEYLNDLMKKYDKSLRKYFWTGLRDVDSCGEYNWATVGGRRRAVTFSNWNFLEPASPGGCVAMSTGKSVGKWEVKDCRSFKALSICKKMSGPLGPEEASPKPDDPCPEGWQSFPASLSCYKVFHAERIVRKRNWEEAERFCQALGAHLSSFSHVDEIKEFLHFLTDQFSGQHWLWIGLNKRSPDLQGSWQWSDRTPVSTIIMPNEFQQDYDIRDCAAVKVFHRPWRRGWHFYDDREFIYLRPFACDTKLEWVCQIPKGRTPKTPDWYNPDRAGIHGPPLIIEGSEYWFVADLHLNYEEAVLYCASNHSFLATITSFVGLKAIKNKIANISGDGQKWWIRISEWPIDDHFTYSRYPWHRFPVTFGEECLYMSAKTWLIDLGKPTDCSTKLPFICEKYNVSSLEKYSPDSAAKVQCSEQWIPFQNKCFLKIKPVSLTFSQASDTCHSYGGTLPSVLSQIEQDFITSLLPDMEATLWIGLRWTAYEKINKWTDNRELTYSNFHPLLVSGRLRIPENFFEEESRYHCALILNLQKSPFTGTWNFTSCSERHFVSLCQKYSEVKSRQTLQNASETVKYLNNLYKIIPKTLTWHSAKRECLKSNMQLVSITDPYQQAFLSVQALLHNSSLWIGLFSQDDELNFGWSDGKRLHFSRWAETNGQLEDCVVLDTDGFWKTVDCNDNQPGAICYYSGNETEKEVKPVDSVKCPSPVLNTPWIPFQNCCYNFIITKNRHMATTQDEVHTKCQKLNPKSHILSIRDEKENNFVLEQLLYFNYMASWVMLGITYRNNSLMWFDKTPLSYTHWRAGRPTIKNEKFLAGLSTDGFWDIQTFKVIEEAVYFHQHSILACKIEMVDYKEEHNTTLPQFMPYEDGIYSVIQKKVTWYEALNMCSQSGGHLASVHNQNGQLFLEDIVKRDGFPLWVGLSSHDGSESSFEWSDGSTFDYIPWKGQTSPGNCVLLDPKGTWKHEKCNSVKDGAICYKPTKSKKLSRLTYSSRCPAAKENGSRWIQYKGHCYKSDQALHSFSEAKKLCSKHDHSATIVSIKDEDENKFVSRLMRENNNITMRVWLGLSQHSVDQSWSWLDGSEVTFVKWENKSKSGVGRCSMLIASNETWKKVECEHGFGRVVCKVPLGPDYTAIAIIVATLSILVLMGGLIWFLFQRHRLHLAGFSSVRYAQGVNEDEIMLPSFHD

| Binder | Ka [1] [M⁻¹] | Kd [1] [nM] | koff [1] [s⁻¹] | kon [1] [M⁻¹ s⁻¹] | Ka [2] [M⁻¹] | Kd [2] [nM] | koff [2] [s⁻¹] | kon [2] [M⁻¹ s⁻¹] | binding result [3] | binding result [4] |
| --- | --- | --- | --- | --- | --- | --- | --- | --- | --- | --- |
| 2D3-1F5-2A9 (antibody, part only; not given: light chain, V domains shown, part only) VH: EVQLVQSGGGLVHPGGSLRLSCAGSGFTFSNYAMHWVRQAPGKGLEWVSTIGTGGGTPYADSVKGRFTISRDNAKNSLYLQMNSLRAEDMAVYYCALSAFDVWGQGTMVTVSSASTKGPSVFPLA | 1.5e+10 | 0.068 | 2.2e-05 | 330000 | – | – | – | – | – | – |
| 3C7-3A3 (antibody, V domains shown, Human IgG (kappa) from a hybridoma, protein A purified; also called mAb #3; HuMab 3C7-3A3) VH: QVQLVESGGGVVQPGRSLRLSCAASGFTFSSYNMHWVRQAPGKGLEWVAFIWYDGSNKYYGDSVKGRFTISRDNSKNTLYLQMNSLRAEDTAVYYCAREELGIGWYFDLWGRGTLVTVSS VL: EIVLTQSPATLSLSPGERATLSCRASQSVSSYLAWYQQKPGQAPRLLIYDASNRATGIPARFSGSGSGTDFTLTISSLEPEDFAVYYCQQRRTFGQGTKVEIK | – | – | – | – | 5.2e+08 | 5.6 | 0.00076 | 170000 | – | – |
| 5A8-1F1 (antibody, V domains shown, Human IgG (kappa) from a hybridoma, protein A purified; also called mAb #2; HuMab 5A8-1F1) VH: QVQLVESGGGVVQPGRSLRLSCAASGFTFSTYGMHWVRQAPGKGLEWVAIIWYDGGNKYYADSVKGRFTISRDNSKNTLYLQMNSLRAEDTAVYYCARDFYWYFDLWGRGTLVTVSS VL: EIVLTQSPATLSLSPGERATLSCRASQSVSSYLAWYQQKPGQAPRLLIYDASNRATGIPARFSGSGSGTDFTLTISSLEPEDFAVYYCQQRRTFGQGTKVEIK | – | – | – | – | 2.1e+09 | 1.5 | 0.0002 | 360000 | – | – |
| 3D6-2F4 (antibody, V domains shown, Human IgG (kappa) from a hybridoma, protein A purified; also called mAb #5; HuMab 3D6-2F4) VH: QVQLVESGGGVVQPGRSLRLSCAASGFIFSIYGMHWVRQAPGKGLEWVAVIWYDGSNKYYADSVKGRFTISRDNSKNTLYLQMNSLRAEDTAVYYCARAPHFDYWGQGTLVTVSS VL: DIQMTQSPSSLSASVGDRVTITCRASQGISSWLAWYQQKPEKAPKSLIYAASSLQSGVPSRFSGSGSGTDFTLTISSLQPEDFATYYCQQYNSYPYTFGQGTKLEIK | – | – | – | – | 1.5e+10 | 0.08 | 0.00012 | 1.8e+06 | – | – |
| 3D6-4C8 (antibody, V domains shown, Human IgG (kappa) from a hybridoma, protein A purified; also called HuMab 3D6-4C8) VH: QVQLVESGGGVVQPGRSLRLSCAASGFIFSIYGMHWVRQAPGKGLEWVAVIWYDGSNKYYADSVKGRFTISRDNSKNTLYLQMNSLRAEDTAVYYCARAPHFDYWGQGTLVTVSS VL: AIQLTQSPSSLSASVGDRVTITCRASQGISSALAWYQQKPGKAPKLLIYDASSLESGVPSRFSGSGSGTDFTLTISSLQPEDFATYYCQQFNSYPLTFGGGTKVEIK | – | – | – | – | – | – | – | – | binds | binds |
| 3G9-2D2 (antibody, V domains shown, Human IgG (kappa) from a hybridoma, protein A purified; also called mAb #8; HuMab 3G9-2D2) VH: QVQLVESGGGVVQPGRSLRLSCAASGFTFSNYGMYWVRQAPGKGLEWVAVIWYDGSNKYYADSVKGRFTISRDNSKNTLYLQMNSLRAEDTAVYYCARDLWGWYFDYWGQGTLVTVSS VL: EIVLTQSPATLSLSPGERATLSCRASQSVSSYLAWYQQKPGQAPRLLIYDASNRATGIPARFSGSGSGTDFTLTISSLEPEDFAVYYCQQRRNWPLTFGGGTKVEIK | – | – | – | – | 4.7e+09 | 0.24 | 0.00019 | 900000 | – | – |
